Assay results published in the DeepSol protein solubility set.

Experiment: soluble on expression in E. coli; label from the status in PepcDB or PDB records
In the case of “MDGQADGMFIDRAEDARKQEITEQYLNFLDNQADTFHYRQKIVKMMNDGESRLVMNLDEIREILPERAEGLLTQSVLEMNCLQSALQMAINRSDVQAVVKTGFHVGFEGTFGERHVNPRTLKSSYLGNLVCCEGIVTKCSTVRQKLLTSVHYCPATNKVLEKKFADFTMLDTAVTNNNYPTEDENKNPLETEFGHSVYKDHQTFTIQELPESAPAGQLPRAVDCVADLDLADRVKPGDRVRIIGVFRVLPNKQNGVSSGSFRSIIIINHIQMLSKEVIPNFEPQDVKDVRKISKSRNPFELLARSLAPSICGHEETKKALLCLLLGGMEKILNNGSRLRGDINVLLIGDPSVAKSQLLRYVLRMAPRAITTTGRGSSGVGLTAAVTTDPDSGERRLEAGAMVLADRGVVCIDEFDKMSDIDRTAIHEVMEQGRVTISKAGIHAKLNARCSVLAAANPVYGRYNPFKSPMENIGMQDSLLSRFDLIFVLLDEHDADKDANVAEHVLKLHTYRTQGEADGTVLPMGGGVETISTINMETKKASSSIYEENTQWAGIQDTKILTMDFMRKYIHLARSVQPKLTDEATEYISEVYADIRSFDITKTDQERTMPVTARQLETLIRLSTAIAKARFSKKVEREDTEKAYNLLHFACFKEKPKARQEYEKKKRAPRIDGDDDEDQSDNEDMATSEEPQSSSVPTAATPRRGVRRRAEDDDSQDSMMDTTIGESQPTAKKARTGPAAIGVDRYKELRKYVRKAFDDIGSTDDMVELQIITDSVQTQAGSHKFTEDELKAGYEQLENDNAAMIAEDKITLI”, the “soluble on expression in E. coli” value was “not soluble”. In the case of “MSSSRNFDLEYDDYKERRNAAGMGSRASSRNGGRFKPIDKEKEKEKKEIGDYGLPKNEYKMQGYDERSSDVGADPLASVRTLRNNLRVMSLEHRDKDEPVKSHLCQSACDDLSKAEKQLVDLSHKRSDAVVRGDSRQAEQIAKDMDRVKSDAIRNAYSDLMMEDGTMKAFGVNSKWTPDKNPMPSDDWKPMTPMKPRKRAETPKGRKTESRQSNRGNNDNGDQRMTSKATTRSPERRVIPTEPSKPKTTRKNQRLSTIGHVPEAIPVVDTPLPGGSTVQDDPYKMPTYVGRCPHCQLTESGLGRAGGMEKHFAKYCKVMTSCKYCMKLTMVSQLTDHLIYRCEFLQDTMEACNDCGLAIEKEDQKRGGSHPMCRGRRPPTGAQWCPLCTIAVEDNEENWREHLLNNCYNNQRRDGPEKDPWEMKQEQEDILLGAKEKKKREMEEEERLKKEAEIRRQQQQVVVNNTGYPGKMIDADKLVVALQEIQERKKAEKKKKLKDIEKET”, the “soluble on expression in E. coli” value was “not soluble”. With “ANFNVPKLGVFPVAAVFDIDNVPEDSSATGSRWLPSIYQGGNYWGGGPQALHAQVSNFDSSNRLPYNPRTENNPAGNCAFAFNPFGQYISNISSAQSVHRRIYGIDLNDEPLFSPNAASITNGGNPTMSQDTGYHNIGPINTAYKAEIFRPVNPLPMSDTAPDPETLEPGQTEPLIKSDGVYSNSGIASFIFDRPVTEPNPNWPPLPPPVIPIIYPTPALGIGAAAAYGFGYQVTVYRWEEIPVEFIADPETCPAQPTTDKVIIRTTDLNPEGSPCAYEAGIILVRQTSNPMNAVAGRLVPYVEDIAVDIFLTGKFFTLNPPLRITNNYFADDEVKENTVTIGNYTTTLSSAYYAVYKTDGYGGATCFIASGGAGISALVQLQDNSVLDVLYYSLPLSLGGSKAAIDEWVANNCGLFPMSGGLDKTTLLEIPRRQLEAINPQDGPGQYDLFILDDSGAYASFSSFIGYPEAAYYVAGAATFMDVENPDEIIFILRNGAGWYACEIGDALKIADDEFDSVDYFAYRGGVMFIGSARYTEGGDPLPIKYRAIIPGLP” the “soluble on expression in E. coli” value was “soluble”. With “MRLILPVGLIATTLAIAPVRFDREKVFRVKPQDEKQADIIKDLAKTNELDFWYPGATHHVAAKMMVDFRVSEKESQAIQSALDQNKMHYEILIHDLQEEIEKQFDVKEDIPGRHSYAKYNNWEKIVAWTEKMMDKYPEMVSRIKIGSTVEDNPLYVLKIGEKNERRKAIFMDCGIHAREWVSPAFCQWFVYQATKTYGRNKIMTKLLDRMNFYILPVFNVDGYIWSWTKNRMWRKNRSKNQNSKCIGTDLNRNFNASWNSIPNTNDPCADNYRGSAPESEKETKAVTNFIRSHLNEIKVYITFHSYSQMLLFPYGYTSKLPPNHEDLAKVAKIGTDVLSTRYETRYIYGPIESTIYPISGSSLDWAYDLGIKHTFAFELRDKGKFGFLLPESRIKPTCRETMLAVKFIAKYILKHTS” the “soluble on expression in E. coli” value was “soluble”. With “PDPNRFDRDRLFNAVSRGVPEDLAGLPEYLSKTSKYLTDSEYTEGSTGKTCLMKAVLNLKDGVNACILPLLQIDRDSGNPQPLVNAQCTDDYYRGHSALHIAIEKRSLQCVKLLVENGANVHARACGRFFQKGQGTCFYFGELPLSLAACTKQWDVVSYLLENPHQPASLQATDSQGNTVLHALVMISDNSAENIALVTSMYDGLLQAGARLCPTVQLEDIRNLQDLTPLKLAAKEGKIEIFRHILQREFS” the “soluble on expression in E. coli” value was “soluble”. In the case of “MSLKITSISVQQKNKERYNIFIDEKYNFSVDEEVLARYQLMKGKTLTEADIEEIKQADMVRKGLNKAINFLSHRVRSEKEIRDYLRKQEMEPFAVDEILKKLADMDYINDVEFAELYTKTQIKTTLKGPRTIERELVEKGLTREIISQVMEEYASDIQLENATKQAMKIMKRNNKSAKKMLQQKIITDLIQKGYSSEVAKMAAIEATSELDVADEADILQKQVEKTIRKNKRYKPSIAKQKTITSLMQKGFSYDTIQSYLTENEISEGHHHHHH”, the “soluble on expression in E. coli” value was “not soluble”. With “MKAVVQRVTRASVTVGGEQISAIGRGICVLLGISLEDTQKELEHMVRKILNLRVFEDESGKHWSKSVMDKQYEILCVSQFTLQCVLKGNKPDFHLAMPTEQAEGFYNSFLEQLRKTYRPELIKDGKFGAYMQVHIQNDGPVTIELESPAPGTATSDPKQLSKLEKQQQRKEKTRAKGPSESSKERNTPRKEDRSASSGAEGDVSSEREP” the “soluble on expression in E. coli” value was “soluble”. In the case of “MNSKSRITAIGTHVPNQILSNNDLEKMIDTNDEWIVQRTGMKERRIASEDEYSSNLAIKAVENLCTTYKKNLEDVDCIIVATTTADYVFPSVACQIQQYFNIPHTMAFDLNATCAGFTYGLHVGNSLITSGSHKKVLVVATETLSKVTDYTDRTTCILFGDGAGAILLERDENKPSFIAYHMGTNGHGGIHLYRTNLSTTMNDTPLQTNEKIVQNGREVYKWATRTVPVGIKELLHTANMKMDDIDWFIPHSANLRMIESICEKSQIPIHKTLTSVEYMGNTSSVSIPLALDLARKKGKLNNGDTLLLYGFGGGLTHLGLIVEWDLS”, the “soluble on expression in E. coli” value was “not soluble”. With “MLRTPNNRHKIDSILVLGTAQYDGVPSRQFAARLRHAAKLWRLHEIQHVYTVGGKLPGDRFTEAEVAREYLIKEGVDPDLIFVSAVGNDTVSSYEALDPEKLGRVLIVTDPNHSYRAVRIARRMGFDAKPSPTTYSPAKFPSIVYFLTLSHEWGGVVVQDVSRLLGERVADKVEASLRAIQGLLRPSRRARHEQLRRLKKLEHHHHHH” the “soluble on expression in E. coli” value was “soluble”. In the case of “SLKITDVQLTAIGMPRLTGFVNKHVIVQLFTDEGIEGIGEMSDFSHLPKYAVDIVDLERTLKQILVGKNPFDIAPINTELNGNFPEAMYYYEKGSFIRNGVDTALYDLCAKALGVSVSDLLGGRQREKIKVCFPIFRHRFMDEVEANLELVKKQYEKGFDVFRLYVGKNVDADEAFLAGVYNEFGGKVKVKSLDFSHLLDWKEALRITRRLAKYPIDLVESPALRNDFAGLHHFRMRCELPVSEHVWSLRQQSEMIKHDSVDIFNIAPVFIGGITQARKAADAAAVAEKSVLIGTTQELSIGTTAMAYFGSTLDHLNYISDPTGPELYVGDVVKNKVNYENGYLHLPERSTIGLGMELDWEKVEQYRVESLNWEDVSVHQLQDRTAQTRA”, the “soluble on expression in E. coli” value was “not soluble”. In the case of “MCISKIDMAKVKKFFKEYLFAKFQCKNRELYRQLKDYDPKDDQKYLKWEHFVEYVEQVLEALDKTSAQIIKEIYIQNKRICELPYSYSTYYAYRKKAIIELLAYLDLKI”, the “soluble on expression in E. coli” value was “soluble”. In the case of “MGSDKIHHHHHHMRKYSQRHIPVMVREVIEFLKPEDEKIILDCTVGEGGHSRAILEHCPGCRIIGIDVDSEVLRIAEEKLKEFSDRVSLFKVSYREADFLLKTLGIEKVDGILMDLGVSTYQLKGENRGFTFEREEPLDMRMDLESEVTAQKVLNELPEEELARIIFEYGEEKRFARRIARKIVENRPLNTTLDLVKAVREALPSYEIRRRKRHFATKTFQAIRIYVNRELENLKEFLKKAEDLLNPGGRIVVISFHSLEDRIVKETFRNSKKLRILTEKPVRPSEEEIRENPRARSGRLRAAERIEEGGD”, the “soluble on expression in E. coli” value was “not soluble”. With “MSLKKIVIVGAGFAGVSATRLLAKNLKNDAEITVIDKHDFQTSMTQLHEVAASRVEADAVQYHLNRTIGKFNNVKVVKESLVELDKANKKVITDKNSYDYDYLVVSMGGEPNDFGVPGVNEYGFTLWSLEDALKIKAHLKEMVQAAAKEADSEKRKKLLTFSVAGSGFTGIEMAGELIDWRKKASKKYGIPESEFTINIVEMMPTIMNILDRSLADKALVYLQNKNINVLVNHGITAVAQDHITVNVGGRDEEKVVKEIPGNTLIWTTGVQGNTEAEACQLSETERGHRLQANEYMEAIGEENHGIYVAGDVSGYIVPENGRPTPQIVEAAEQTGSTAAKNIIADIKGGEKEGHHHHHH” the “soluble on expression in E. coli” value was “soluble”. For “MDTSDHKPLIDRFETEFAEKSSLLRKEESELKRPDLRGDFLCLSCGQNFKHGASLNRHRKLVHSDEYTCMLCARKLYLKETVRDHMRNEHYLGQVYTCGCCNWTFSNKKALTEHAKAIQETGAPGDANPIAKSGNSPGSLLKSPIQRAGFKLNRLLNKSLSPSTSNSTTSSSSRDASGSPQPELELKLEPEPEPEPNEEALEYKRFFNNAVDTILQRNFFTDQQITEVDTWVIIIESANALATALQSYKKAQQIQPAEPAMIPEKRIKPEIE”, the “soluble on expression in E. coli” value was “soluble”. In the case of “MGSDKIHHHHHHAQDDANCNSNSSISHEAVKAGNFKDAYTPWKAVLENCPTLRFYTFTDGYKILKGLLGQIKDRNSAEYKKYFDELMNTHDLRMKYTQEFLGKGVKVSSEDEALGIKAVDYIAFAPKVDVNQAYDWLKKSVDAAKAESAAATLFYFLQMSHDKLKEDPAHKEQFIQDYLAASEYADDAIAAADKESVKKAFGGIKDNLVALFINSGTADCESLQGIYGPKVETNQTDLNYLKKVISIMKMMKCTDSDAYQQASFYVYKIEPSAEAATGCAYQAYKKGDIDGSVKFFDEAINLETDNAKKAEKAYAAASVLTTAKKLSQARSYAQKAISFNENYGAPYILIANLYAMSPNWSDESALNKCTYFAVIDKLQKAKSVDPSVTEEVNKMISRYSAYTPQAKDLFMLGYKAGDRITIGGWIGESTTIR”, the “soluble on expression in E. coli” value was “not soluble”. For “GPGSMLRAFASPILAKVPYATLFEYNHVLQKVFEAQPSKVALRCELPGMPEVQFTYGQLQRDVVALADAVVRRKEAVAQARGETSLGWLQPSKPAHVRSVFAQGERTPSCDYMKDTGFYTTSLLCGPGYTYAVSLLASWSLNQLVTPMPISQRYKDELMYVLEHSGSRSIVGNTKLLKEKLPAEYEELYVRAEADVDKIPRSASREPKQRNDSDVTSNTFFVDTVYDATLLVRDITAARDIQGTATLETEWLPPAESVCAPMRSAEDLVKRLDEEKATAKARELDRQAEILQQEHVRRNRAPMQATGGADPAGSDADGESLFCFDSAHLDELNRVYQRWYTMPSARPTKYDDCLMLYTSGTTAKPKGVVHTHASVANMVKVLQNAWQWRDTDSILHVLPWHHVHGLVNILLCAIASNARCVVTTFDDAARVAHRLEQGDITLFMAVPTVYVKLSDAVQRKFSPIEKTGFRRACMESVRLMVCGSAPLPVPTLNQFCELSGHTLLERYGMTEIGMALSQPLHPISDRHPGTVGSPLQTVKTYVHQPETAEAMEQASAKEAEYDEVGGLGIASESLFDRYWNNATATKKEVRTNAAGMRFFDTGDTVGVRLPAGKPAVYTILGRSSVDIIKSRGYKLSALEIEATLLARNDLFYEIAVVGAADAVQGESVVAIVAMQPEAARARGIAFGEGFAWHESAAVTEELKKAALQLLAPYKCPSRYIVVPEIPRNPTGKVNKKDLKKVLGLA”, the “soluble on expression in E. coli” value was “not soluble”.
